Positions count from the first letter of the chain named. Like-named read-outs stand apart in the source and are kept apart here.
T1: human SLC34A2 (human, UniProt O95436 1-690)
T1 construct: whole, on cells; also called human solute carrier 34 A2; NaPi2b
T1 sequence (looked up): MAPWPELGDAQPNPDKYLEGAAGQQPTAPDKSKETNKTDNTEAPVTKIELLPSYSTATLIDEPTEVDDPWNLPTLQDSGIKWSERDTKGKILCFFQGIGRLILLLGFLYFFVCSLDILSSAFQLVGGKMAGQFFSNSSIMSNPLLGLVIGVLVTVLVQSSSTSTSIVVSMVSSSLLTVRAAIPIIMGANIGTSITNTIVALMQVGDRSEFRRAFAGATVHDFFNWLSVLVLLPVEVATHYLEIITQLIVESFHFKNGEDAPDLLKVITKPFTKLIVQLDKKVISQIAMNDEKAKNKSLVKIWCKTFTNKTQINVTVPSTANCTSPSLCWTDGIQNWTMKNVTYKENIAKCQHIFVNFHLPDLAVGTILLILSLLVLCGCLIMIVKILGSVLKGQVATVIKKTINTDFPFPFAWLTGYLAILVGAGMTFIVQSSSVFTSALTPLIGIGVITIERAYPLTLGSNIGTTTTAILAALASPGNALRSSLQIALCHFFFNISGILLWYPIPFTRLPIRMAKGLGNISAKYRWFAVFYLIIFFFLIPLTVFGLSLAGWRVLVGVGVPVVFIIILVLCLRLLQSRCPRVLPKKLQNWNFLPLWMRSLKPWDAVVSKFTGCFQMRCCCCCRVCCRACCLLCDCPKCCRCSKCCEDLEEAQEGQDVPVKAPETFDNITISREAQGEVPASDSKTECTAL

T2: Rhesus SLC34A2 (Rhesus, UniProt F7HDA3 1-690)
T2 construct: whole, on cells
T2 sequence: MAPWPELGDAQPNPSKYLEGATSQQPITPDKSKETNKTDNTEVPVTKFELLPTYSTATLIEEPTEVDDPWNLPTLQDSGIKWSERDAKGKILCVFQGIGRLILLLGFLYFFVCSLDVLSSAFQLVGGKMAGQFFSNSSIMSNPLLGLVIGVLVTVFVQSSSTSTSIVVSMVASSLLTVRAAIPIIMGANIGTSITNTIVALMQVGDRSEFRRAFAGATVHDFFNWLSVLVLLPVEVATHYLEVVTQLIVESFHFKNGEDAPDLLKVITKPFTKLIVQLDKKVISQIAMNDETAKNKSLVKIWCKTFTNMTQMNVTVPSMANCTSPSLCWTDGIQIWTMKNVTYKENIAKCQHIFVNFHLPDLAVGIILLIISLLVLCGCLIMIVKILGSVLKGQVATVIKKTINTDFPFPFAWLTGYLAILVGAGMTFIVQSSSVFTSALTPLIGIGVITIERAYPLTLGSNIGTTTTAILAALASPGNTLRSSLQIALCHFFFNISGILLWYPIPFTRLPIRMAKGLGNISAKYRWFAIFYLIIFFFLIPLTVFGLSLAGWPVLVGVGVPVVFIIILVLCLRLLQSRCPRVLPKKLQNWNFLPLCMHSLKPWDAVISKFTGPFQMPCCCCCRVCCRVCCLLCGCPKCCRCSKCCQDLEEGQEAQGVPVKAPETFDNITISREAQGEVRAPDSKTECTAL

T3: Cynomolgus SLC34A2 (Cynomolgus, UniProt A0A2K5UHY1 1-690)
T3 construct: whole, on cells; also called Cyno SLC34A2
T3 sequence: T2 sequence with P325H, I530V

B1: 62G10E4G8 VH_P3/VL hIgG1 (antibody, V domains shown)
VH: QVQLQQSGAEVVKPGASVKMSCKASGYTFPSYITHWVKQTPGQGLEWIGAIYPGNADTSYIQKFKGKATLTADKSSSTAYMQLSSLTSEDSAVYYCARGTYGTSAWFTYWGQGTLVTVSA
VL: DIVLTQSPATLSVTPGDSVSLSCRARQNIGNNLYWYQQKSHESPRLLIKYASQSISGIPSRFSGSGSGTDFTLTINSVETEDFGVYFCQQSFSWPLTFGAGTKLELK
notes: PTM-derisked chimeric, hIgG1; that P3 is the NA version follows from the humanized .p3 chains; also called 62G10E4G8.p3 hIgG1
B2: 30H9B8F9 VH_P1/VL hIgG1 (antibody, V domains shown)
VH: QVQLQQPGAELVKPGASVKMSCKTSGYTFTTNNMHWVKQTPGQGLEWIGAIYPGSGATAYNQKFKGKATLTADKSSSTAYMQLSSLTSEASAVYYCARGMYGHGAMDYWGQGTSVIVSS
VL: DIVMTQSHKFMSRSVGDRVRITCKASQDVGTAVAWYQQKPGQSPKLLIYWATTRHSGVPDRFTGSGSGTDFIFTISNVQSEDLADYFCQQYSSNPLTFGAGTKLELK
notes: PTM-derisked chimeric, hIgG1; that P1 is the N=>S version follows from the humanized .p1 chains; also called 30H9B8F9.p1 hIgG1
B3: xi55E5B6D12 hIgG1 (antibody, V domains shown)
VH: QVQLQQSGAEVVNSGASVKMSCKASGYTFTTYNMHWVKQTPGQGLEWIGAIYPGNGDTSYNQRFKGKATFTADRSSGTAYMQLSSLPSEDSAVYYCARGGYANGALVDWGQGTLVTVSA
VL: DILMTQSHKFMSTSVGDRVTITCKASQDVGTAVAWYQNKPGQSPKLLIFWTSTRHTGVPDRFTGSGSGTDFTLTISNVQSEDLADYFCQQYSRQPLTFGPGTKLEIK
notes: chimeric, hIgG1
B4: xi90G10H7 hIgG1 (antibody, V domains shown)
VH: QVQLQQPGAVLVKPGASVKMSCKASGYTFTSYIIHWVKQTPGQGLEWVGAIYPGNGDASSIQKFKGKATLTVDKSSSTAYMQLSSLTSADSAVYYCARGHYYGSAAWFAYWGQGTLVTVSA
VL: DILLTQSPAILSVSPGERVSFSCRASQNIGTGIHWYQQRTNGSLRLLIKYASESISGIPSRFSGSGSGTDFTLSINSVESEDIADYYCQQSNSWPLTFGAGTKLELK
notes: chimeric, hIgG1

Assays:
[1] = biological target: T1, human SLC34A2; assay: FACS, OVCAR3 cells
Protocol: The binding of these humanized antibodies to OVCAR3 cells was evaluated as described above, and the results are shown in FIG. 12A-D and Tables 16A-D.

[2] = biological target: T1, human SLC34A2; assay: FACS, RMG-1 cells
Protocol: (§1) In another testing, cell based binding of hu Abs on human SLC34A2 expressing cells were assessed using flow cytometry. Briefly, the HEK293/H_SLC34A2, OVCAR3 and RMG-1 cells were incubated with hu Abs. After incubation at 4° C. for 60 minutes, the cells were washed with FACS buffer twice, then stained with fluorescent conjugated secondary antibody at 4° C. for 30 minutes. After that the cells were washed twice and analyzed by flow cytometry.

[3] = biological target: T1, human SLC34A2; assay: FACS, OVCAR3 cells; remark: listed apart in the source
[4] = biological target: T2, Rhesus SLC34A2; assay: FACS, HEK293/Rhesus SLC34A2 cells
[5] = biological target: T1, human SLC34A2; assay: cell-based or functional assay
[6] = biological target: T2, Rhesus SLC34A2; assay: FACS, HEK293/Rhesus SLC34A2 cells; remark: listed apart in the source
[7] = biological target: T1, human SLC34A2; assay: FACS, HEK293/human SLC34A2 cells
Protocol: The PTM-derisked VH chains were first tested for their impact on target binding. Cell based binding of PTM Abs on human SLC34A2 expressing cells were assessed using flow cytometry. Briefly, the HEK293/H_SLC34A2 cells were incubated with PTM Abs (from 200 nM, 4 folds dilution, 8 points). After incubation at 4° C. for 60 minutes, the cells were washed with FACS buffer twice, then stained with fluorescent conjugated secondary antibody at 4° C. for 30 minutes. After that the cells were washed twice and analyzed by flow cytometry.

[8] = biological target: T1, human SLC34A2; assay: FACS, HEK293/human SLC34A2 cells; remark: listed apart in the source
Protocol: as §1

[9] = biological target: T1, human SLC34A2; assay: FACS, OVCAR3 cells; remark: listed apart in the source
Protocol: as §1

[10] = biological target: T1, human SLC34A2; assay: cell-based or functional assay; remark: listed apart in the source
[11] = biological target: T1, human SLC34A2; assay: FACS, HEK293/human SLC34A2 cells; remark: listed apart in the source
Protocol: (§2) Briefly, OVCAR3 cells or HEK293 cells expressing human SLC34A2 were incubated with chimeric antibodies (from 200 nM, 4 folds dilution, 8 points). After incubation at 4° C. for 60 minutes, the cells were washed with FACS buffer twice, then stained with fluorescent conjugated secondary antibody at 4° C. for 30 minutes. After that the cells were washed twice and analyzed by flow cytometry.

[12] = biological target: T1, human SLC34A2; assay: FACS, RMG-1 cells; remark: listed apart in the source
Protocol: Based on the foregoing cell-based binding results, some of the chimeric antibodies were selected for further cell based binding on human SLC34A2 expressing cells using flow cytometry. RMG-1 cells were incubated with the selected chimeric antibodies (from 200 nM, 4 folds dilution, 8 points). After incubation at 4° C. for 60 minutes, the cells were washed with FACS buffer twice, then stained with fluorescent conjugated secondary antibody at 4° C. for 30 minutes. Afterwards the cells were washed twice and analyzed by flow cytometry.

[13] = biological target: T2, Rhesus SLC34A2; assay: FACS, HEK293/Rhesus SLC34A2 cells; remark: listed apart in the source
Protocol: as §2, with “the Rhesus SLC34A2 expressing HEK293 engineering” for “OVCAR3”, “(HEK293/Rhesus_SLC34A2)” for “or HEK293 cells expressing human SLC34A2”, “Abs” for “antibodies”

[14] = biological target: T3, Cynomolgus SLC34A2; assay: FACS, cells expressing Cynomolgus SLC34A2
[15] = biological target: T1, human SLC34A2; assay: cell-based or functional assay; remark: listed apart in the source
[16] = biological target: T1, human SLC34A2; assay: FACS, OVCAR3 cells; remark: listed apart in the source
In short: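 Flow cytometry binding: cells (OVCAR3, or HEK293 transfected with human SLC34A2) exposed 60 min at 4° C to chimeric hIgG1, 8-point 4-fold series starting 200 nM. Washed, stained 30 min at 4° C with fluorescent anti-human secondary, then analysed.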

Row | Binder | EC50 [1] [nM] | Top (MFI) [1] [MFI] | EC50 [2] [nM] | Top [2] [MFI] | EC50 [3] [nM] | Top (MFI) [3] [MFI] | EC50 [4] [nM] | Top (MFI) [4] [MFI] | ADCC reporter EC50 [5] [nM] | ADCC reporter Top (MFI) [5] [MFI] | EC50 [6] [nM] | Top (MFI) [6] [MFI] | EC50 [7] [nM] | Top (MFI) [7] [MFI] | EC50 [8] [nM] | Top [8] [MFI] | EC50 [9] [nM] | cytotoxicity EC50 [10] [nM] | cytotoxicity Inhibition % [10] [%] | EC50 [11] [nM] | also measured
1 | B1 | 6.98 | 30300 | 14.8 | 11200 | 9.1 | 72500 | 4.3 | 36500 | 4.23 | 122000 | 5 | 14400 | 2.73 | 30800 | 9.08 | 35700 | 6.98 | – | – | – | –
2 | B2 | 0.68 | 28700 | 1.09 | 11100 | 1.5 | 70400 | 2 | 47400 | 2.52 | 126000 | 0.8 | 17000 | 0.89 | 31700 | 1.18 | 35700 | 0.37 | – | – | – | –
3 | B3 | – | – | – | – | 5.1 | 71400 | 4.9 | 46400 | – | – | – | – | 1.48 | 30400 | – | – | – | 0.69 | 96.7 | 1.8 | Top (MFI) [11]: 115000 MFI; EC50 [12]: 3.48 nM; Top (MFI) [12]: 9500 MFI; EC50 [13]: 2.46 nM; Top (MFI) [13]: 15900 MFI; EC50 [14]: 2.7 nM; Top (MFI) [14]: 3540 MFI; ADCC reporter EC50 [15]: 3 nM; ADCC reporter Top (MFI) [15]: 530000 MFI; EC50 [16]: 3.31 nM; Top (MFI) [16]: 42900 MFI
4 | B4 | – | – | – | – | 3.9 | 72900 | 3.5 | 47400 | – | – | – | – | 1.14 | 32200 | – | – | – | 0.28 | 103 | 1.52 | Top (MFI) [11]: 114000 MFI; EC50 [12]: 2.77 nM; Top (MFI) [12]: 9920 MFI; EC50 [13]: 2.19 nM; Top (MFI) [13]: 18500 MFI; EC50 [14]: 2.4 nM; Top (MFI) [14]: 4560 MFI; ADCC reporter EC50 [15]: 2.3 nM; ADCC reporter Top (MFI) [15]: 397000 MFI; EC50 [16]: 2.14 nM; Top (MFI) [16]: 43300 MFI
